{"source": "the supplement of paper PMC9112550", "about": "“Optimization of the antimicrobial peptide Bac7 by deep mutational scanning” (BMC Biology, 2022);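 also: peptides expressed intracellularly from a pBAD plasmid library in pooled LB shake-flask culture, induced with 0.3% L-arabinose, DNA abundance read by NGS, three biological replicates, DESeq2 with apeglm shrinkage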", "data": [{"tested_on": "Escherichia coli TOP10", "assay": "shrunken log2 fold change of peptide-encoding DNA abundance (4.5 h post-induction vs induction); higher = less antimicrobial activity (less host growth inhibition)", "details": "time post-induction: 4.5 h; library: site-saturation at positions 5, 18, 19, 20", "values": [{"sequence": "RRIRCRPPRLPRPRPRPAACPRP", "shrunken log2 fold change": 0.202}, {"sequence": "RRIRRRPPRLPRPRPRPIAVPRP", "shrunken log2 fold change": -0.0851}, {"sequence": "RRIRTRPPRLPRPRPRPGDVPRP", "shrunken log2 fold change": 0.0978}, {"sequence": "RRIRKRPPRLPRPRPRPEKIPRP", "shrunken log2 fold change": 0.185}, {"sequence": "RRIRNRPPRLPRPRPRPKTDPRP", "shrunken log2 fold change": -0.206}, {"sequence": "RRIRNRPPRLPRPRPRPVWMPRP", "shrunken log2 fold change": -0.0917}, {"sequence": "RRIRDRPPRLPRPRPRPCSRPRP", "shrunken log2 fold change": 0.0202}, {"sequence": "RRIRRRPPRLPRPRPRPCSHPRP", "shrunken log2 fold change": -0.18}, {"sequence": "RRIRDRPPRLPRPRPRPCPPPRP", "shrunken log2 fold change": -0.249}, {"sequence": "RRIRTRPPRLPRPRPRPYCFPRP", "shrunken log2 fold change": -0.301}, {"sequence": "RRIRDRPPRLPRPRPRPMCHPRP", "shrunken log2 fold change": 0.216}, {"sequence": "RRIRTRPPRLPRPRPRPQLKPRP", "shrunken log2 fold change": 0.0828}, {"sequence": "RRIRLRPPRLPRPRPRPNTSPRP", "shrunken log2 fold change": -0.333}, {"sequence": "RRIRIRPPRLPRPRPRPGLRPRP", "shrunken log2 fold change": -0.0223}, {"sequence": "RRIRWRPPRLPRPRPRPAYGPRP", "shrunken log2 fold change": -0.213}, {"sequence": "RRIRMRPPRLPRPRPRPWRNPRP", "shrunken log2 fold change": -0.00207}, {"sequence": "RRIRGRPPRLPRPRPRPMFEPRP", "shrunken log2 fold change": 0.688}, {"sequence": "RRIRERPPRLPRPRPRPNQNPRP", "shrunken log2 fold change": -0.188}, {"sequence": "RRIRNRPPRLPRPRPRPSFKPRP", "shrunken log2 fold change": -0.25}, {"sequence": "RRIRWRPPRLPRPRPRPHDSPRP", "shrunken log2 fold change": -0.122}, {"sequence": "RRIRYRPPRLPRPRPRPVTLPRP", "shrunken log2 fold change": -0.713}, {"sequence": "RRIRVRPPRLPRPRPRPYPMPRP", "shrunken log2 fold change": -0.299}, {"sequence": "RRIRHRPPRLPRPRPRPLNGPRP", "shrunken log2 fold change": -0.178}, {"sequence": "RRIRTRPPRLPRPRPRPVNMPRP", "shrunken log2 fold change": -0.192}, {"sequence": "RRIRVRPPRLPRPRPRPPTRPRP", "shrunken log2 fold change": 0.508}, {"sequence": "RRIRWRPPRLPRPRPRPNTQPRP", "shrunken log2 fold change": 0.448}, {"sequence": "RRIRWRPPRLPRPRPRPEYTPRP", "shrunken log2 fold change": 0.166}, {"sequence": "RRIRDRPPRLPRPRPRPVINPRP", "shrunken log2 fold change": -0.0846}, {"sequence": "RRIRLRPPRLPRPRPRPMPQPRP", "shrunken log2 fold change": 0.164}, {"sequence": "RRIRFRPPRLPRPRPRPSYAPRP", "shrunken log2 fold change": -0.116}, {"sequence": "RRIRNRPPRLPRPRPRPWEDPRP", "shrunken log2 fold change": -0.0966}, {"sequence": "RRIRIRPPRLPRPRPRPMYGPRP", "shrunken log2 fold change": -0.437}, {"sequence": "RRIRYRPPRLPRPRPRPEAYPRP", "shrunken log2 fold change": -0.185}, {"sequence": "RRIRDRPPRLPRPRPRPGRWPRP", "shrunken log2 fold change": 0.797}, {"sequence": "RRIRRRPPRLPRPRPRPLAFPRP", "shrunken log2 fold change": 0.448}, {"sequence": "RRIRTRPPRLPRPRPRPQMVPRP", "shrunken log2 fold change": -0.37}, {"sequence": "RRIRWRPPRLPRPRPRPSESPRP", "shrunken log2 fold change": 0.0933}, {"sequence": "RRIRFRPPRLPRPRPRPWVEPRP", "shrunken log2 fold change": -0.0273}, {"sequence": "RRIRRRPPRLPRPRPRPSFEPRP", "shrunken log2 fold change": 0.234}, {"sequence": "RRIRHRPPRLPRPRPRPIVPPRP", "shrunken log2 fold change": 0.0781}, {"sequence": "RRIRGRPPRLPRPRPRPNQGPRP", "shrunken log2 fold change": 0.0411}, {"sequence": "RRIRWRPPRLPRPRPRPCTLPRP", "shrunken log2 fold change": -0.842}, {"sequence": "RRIRHRPPRLPRPRPRPRHQPRP", "shrunken log2 fold change": 0.0252}, {"sequence": "RRIRRRPPRLPRPRPRPGVGPRP", "shrunken log2 fold change": 0.59}, {"sequence": "RRIRRRPPRLPRPRPRPEKRPRP", "shrunken log2 fold change": 0.296}, {"sequence": "RRIRHRPPRLPRPRPRPLKRPRP", "shrunken log2 fold change": -0.00686}, {"sequence": "RRIRARPPRLPRPRPRPTNAPRP", "shrunken log2 fold change": 0.434}, {"sequence": "RRIRHRPPRLPRPRPRPCMEPRP", "shrunken log2 fold change": -0.0962}, {"sequence": "RRIRRRPPRLPRPRPRPFPYPRP", "shrunken log2 fold change": -0.28}, {"sequence": "RRIRERPPRLPRPRPRPQPVPRP", "shrunken log2 fold change": -0.13}, {"sequence": "RRIRRRPPRLPRPRPRPNALPRP", "shrunken log2 fold change": 0.261}, {"sequence": "RRIRNRPPRLPRPRPRPMMFPRP", "shrunken log2 fold change": -0.0478}, {"sequence": "RRIRVRPPRLPRPRPRPKRDPRP", "shrunken log2 fold change": 0.292}, {"sequence": "RRIRSRPPRLPRPRPRPKVSPRP", "shrunken log2 fold change": 0.21}, {"sequence": "RRIRPRPPRLPRPRPRPCFNPRP", "shrunken log2 fold change": -0.512}, {"sequence": "RRIRRRPPRLPRPRPRPQNIPRP", "shrunken log2 fold change": -0.33}, {"sequence": "RRIRWRPPRLPRPRPRPFEKPRP", "shrunken log2 fold change": 0.0683}, {"sequence": "RRIRFRPPRLPRPRPRPTTNPRP", "shrunken log2 fold change": -0.2}, {"sequence": "RRIRMRPPRLPRPRPRPFGFPRP", "shrunken log2 fold change": -0.0868}, {"sequence": "RRIRGRPPRLPRPRPRPKPGPRP", "shrunken log2 fold change": 1.07}, {"sequence": "RRIRRRPPRLPRPRPRPRWQPRP", "shrunken log2 fold change": 0.636}, {"sequence": "RRIRVRPPRLPRPRPRPDPLPRP", "shrunken log2 fold change": -0.231}, {"sequence": "RRIRPRPPRLPRPRPRPCHYPRP", "shrunken log2 fold change": -0.146}, {"sequence": "RRIRRRPPRLPRPRPRPMVFPRP", "shrunken log2 fold change": 0.182}, {"sequence": "RRIRFRPPRLPRPRPRPFIEPRP", "shrunken log2 fold change": -0.894}, {"sequence": "RRIRIRPPRLPRPRPRPCMIPRP", "shrunken log2 fold change": -0.502}, {"sequence": "RRIRMRPPRLPRPRPRPYTNPRP", "shrunken log2 fold change": -0.165}, {"sequence": "RRIRHRPPRLPRPRPRPMGDPRP", "shrunken log2 fold change": -0.0774}, {"sequence": "RRIRCRPPRLPRPRPRPKDLPRP", "shrunken log2 fold change": -0.46}, {"sequence": "RRIRCRPPRLPRPRPRPKFVPRP", "shrunken log2 fold change": -0.155}, {"sequence": "RRIRIRPPRLPRPRPRPLKHPRP", "shrunken log2 fold change": -0.58}, {"sequence": "RRIRFRPPRLPRPRPRPFVRPRP", "shrunken log2 fold change": -0.0733}, {"sequence": "RRIRNRPPRLPRPRPRPMGGPRP", "shrunken log2 fold change": 0.0264}, {"sequence": "RRIRRRPPRLPRPRPRPACEPRP", "shrunken log2 fold change": 0.192}, {"sequence": "RRIRRRPPRLPRPRPRPMTIPRP", "shrunken log2 fold change": 0.0416}]}]}
